Here are results for 28 molecules from patent publication US20180155451A1 (published 2018).

B1: GpH7-B3 variant T335_12R/GpL16-k0 (antibody, human IgG1, kappa)
heavy: not shown
light: DIVMTQSPLSLPVTPGEPASISCQASESLVHSNRNTYLHWYLQKPGQSPQLLIYKVSNRFSGVPDRFSGSGSGTDFTLKISRVEAEDVGVYYCSQNTHVPPTFGQGTKVEIERTVAAPSVFIFPPSDEQLKSGTASVVCLLNNFYPREAKVQWKVDNALQSGNSQESVTEQDSKDSTYSLSSTLTLSKADYEKHKVYACEVTHQGLSSPVTKSFNRGEC
notes: mutation in both H chains; also called Ho Ab T335_12R; T335R
B2: GpH7-B3 variant S298_18N/GpL16-k0 (antibody, human IgG1, kappa)
heavy: not shown
light: B1 light
notes: mutation in both H chains; also called Ho Ab S298_18N; S298N
B3: GpH7-B3 variant S267_02A/GpL16-k0 (antibody, human IgG1, kappa)
heavy: not shown
light: B1 light
notes: mutation in both H chains; also called Ho Ab S267_02A; S267A
B4: GpH7-B3 variant S324_20W/GpL16-k0 (antibody, human IgG1, kappa)
heavy: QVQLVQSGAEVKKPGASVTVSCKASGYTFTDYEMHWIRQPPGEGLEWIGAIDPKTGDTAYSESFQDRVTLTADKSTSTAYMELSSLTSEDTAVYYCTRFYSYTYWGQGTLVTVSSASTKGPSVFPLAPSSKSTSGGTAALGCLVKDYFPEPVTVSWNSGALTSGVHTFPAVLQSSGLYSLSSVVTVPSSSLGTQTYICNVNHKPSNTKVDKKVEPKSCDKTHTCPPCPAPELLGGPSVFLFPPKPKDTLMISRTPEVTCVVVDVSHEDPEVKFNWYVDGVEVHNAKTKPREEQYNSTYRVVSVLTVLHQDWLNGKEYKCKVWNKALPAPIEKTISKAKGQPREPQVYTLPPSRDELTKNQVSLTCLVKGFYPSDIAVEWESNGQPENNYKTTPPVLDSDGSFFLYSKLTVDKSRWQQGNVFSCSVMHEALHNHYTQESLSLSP
light: B1 light
notes: mutation in both H chains; also called Ho Ab S324_20W; S324W
B5: GpH7-B3 variant S298_04F/GpL16-k0 (antibody, human IgG1, kappa)
heavy: not shown
light: B1 light
notes: mutation in both H chains; also called Ho Ab S298_04F; S298F
B6: GpH7-B3 variant S337_07I/GpL16-k0 (antibody, human IgG1, kappa)
heavy: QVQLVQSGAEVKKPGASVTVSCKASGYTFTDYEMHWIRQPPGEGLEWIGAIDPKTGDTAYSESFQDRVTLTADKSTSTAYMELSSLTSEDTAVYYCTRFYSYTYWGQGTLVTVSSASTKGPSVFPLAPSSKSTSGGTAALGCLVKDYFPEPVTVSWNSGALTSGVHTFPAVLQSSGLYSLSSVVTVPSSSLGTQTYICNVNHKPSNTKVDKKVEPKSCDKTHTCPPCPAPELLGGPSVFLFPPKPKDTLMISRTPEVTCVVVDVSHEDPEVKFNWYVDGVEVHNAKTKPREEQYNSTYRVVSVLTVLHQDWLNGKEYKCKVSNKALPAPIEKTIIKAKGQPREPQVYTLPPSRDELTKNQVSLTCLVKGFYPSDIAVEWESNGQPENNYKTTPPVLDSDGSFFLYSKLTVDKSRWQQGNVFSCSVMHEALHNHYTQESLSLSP
light: B1 light
notes: mutation in both H chains; also called Ho Ab S337_07I; S337I
B7: GpH7-B3 variant T335_11K/GpL16-k0 (antibody, human IgG1, kappa)
heavy: not shown
light: B1 light
notes: mutation in both H chains; also called Ho Ab T335_11K; T335K
B8: GpH7-B3 variant S337_04F/GpL16-k0 (antibody, human IgG1, kappa)
heavy: not shown
light: B1 light
notes: mutation in both H chains; also called Ho Ab S337_04F; S337F
B9: GpH7-B3 variant S267_08L/GpL16-k0 (antibody, human IgG1, kappa)
heavy: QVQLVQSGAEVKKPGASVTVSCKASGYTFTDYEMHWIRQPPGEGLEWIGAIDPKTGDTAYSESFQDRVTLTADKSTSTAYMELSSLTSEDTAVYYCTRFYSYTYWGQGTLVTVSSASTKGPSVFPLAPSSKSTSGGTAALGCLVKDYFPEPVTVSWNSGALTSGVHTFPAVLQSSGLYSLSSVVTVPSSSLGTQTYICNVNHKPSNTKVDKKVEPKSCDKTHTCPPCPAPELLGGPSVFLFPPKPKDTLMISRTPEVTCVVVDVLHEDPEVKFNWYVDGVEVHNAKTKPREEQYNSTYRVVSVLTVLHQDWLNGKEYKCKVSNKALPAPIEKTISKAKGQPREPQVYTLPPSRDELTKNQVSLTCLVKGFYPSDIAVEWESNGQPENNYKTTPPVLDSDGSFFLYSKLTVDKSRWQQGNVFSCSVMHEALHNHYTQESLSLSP
light: B1 light
notes: mutation in both H chains; also called Ho Ab S267_08L; S267L
B10: GpH7-B3 variant S298_08L/GpL16-k0 (antibody, human IgG1, kappa)
heavy: not shown
light: B1 light
notes: mutation in both H chains; also called Ho Ab S298_08L; S298L
B11: GpH7-B3 variant S324_19Q/GpL16-k0 (antibody, human IgG1, kappa)
heavy: not shown
light: B1 light
notes: mutation in both H chains; also called Ho Ab S324_19Q; S324Q
B12: GpH7-B3 variant S267_03V/GpL16-k0 (antibody, human IgG1, kappa)
heavy: not shown
light: B1 light
notes: mutation in both H chains; also called Ho Ab S267_03V; S267V
B13: GpH7-B3 variant S298_02A/GpL16-k0 (antibody, human IgG1, kappa)
heavy: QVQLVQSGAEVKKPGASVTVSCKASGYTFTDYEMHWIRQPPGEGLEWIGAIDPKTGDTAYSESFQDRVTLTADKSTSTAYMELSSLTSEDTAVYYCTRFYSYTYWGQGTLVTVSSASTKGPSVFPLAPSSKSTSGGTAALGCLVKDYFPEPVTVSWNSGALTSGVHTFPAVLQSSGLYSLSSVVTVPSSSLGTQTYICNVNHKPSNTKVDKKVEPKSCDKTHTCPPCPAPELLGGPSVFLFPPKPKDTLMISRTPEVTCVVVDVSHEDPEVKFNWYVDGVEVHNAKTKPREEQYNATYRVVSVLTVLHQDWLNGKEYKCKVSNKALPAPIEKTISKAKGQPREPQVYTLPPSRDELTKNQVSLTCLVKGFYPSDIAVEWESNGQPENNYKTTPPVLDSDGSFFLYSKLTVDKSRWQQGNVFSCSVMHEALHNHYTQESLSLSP
light: B1 light
notes: mutation in both H chains; also called Ho Ab S298_02A; S298A
B14: GpH7-B3 variant S337_06M/GpL16-k0 (antibody, human IgG1, kappa)
heavy: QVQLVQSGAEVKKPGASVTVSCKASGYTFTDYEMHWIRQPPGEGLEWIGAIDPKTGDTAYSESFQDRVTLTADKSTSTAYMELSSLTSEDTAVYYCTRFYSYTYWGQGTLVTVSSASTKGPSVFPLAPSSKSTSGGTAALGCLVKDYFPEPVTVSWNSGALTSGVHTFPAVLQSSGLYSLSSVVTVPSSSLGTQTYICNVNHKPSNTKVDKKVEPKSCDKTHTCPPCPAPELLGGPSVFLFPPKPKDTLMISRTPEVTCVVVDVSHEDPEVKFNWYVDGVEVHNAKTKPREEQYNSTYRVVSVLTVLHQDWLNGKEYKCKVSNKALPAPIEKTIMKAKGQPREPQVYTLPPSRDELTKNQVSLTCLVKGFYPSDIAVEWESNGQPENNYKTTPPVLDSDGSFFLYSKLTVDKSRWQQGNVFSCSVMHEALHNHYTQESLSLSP
light: B1 light
notes: mutation in both H chains; also called Ho Ab S337_06M; S337M
B15: GpH7-B3 variant S298_12R/GpL16-k0 (antibody, human IgG1, kappa)
heavy: not shown
light: B1 light
notes: mutation in both H chains; also called Ho Ab S298_12R; S298R
B16: GpH7-B3 variant S298_07I/GpL16-k0 (antibody, human IgG1, kappa)
heavy: not shown
light: B1 light
notes: mutation in both H chains; also called Ho Ab S298_07I; S298I
B17: GpH7-B3 variant S324_11K/GpL16-k0 (antibody, human IgG1, kappa)
heavy: not shown
light: B1 light
notes: mutation in both H chains; also called Ho Ab S324_11K; S324K
B18: GpH7-B3 variant S337_20W/GpL16-k0 (antibody, human IgG1, kappa)
heavy: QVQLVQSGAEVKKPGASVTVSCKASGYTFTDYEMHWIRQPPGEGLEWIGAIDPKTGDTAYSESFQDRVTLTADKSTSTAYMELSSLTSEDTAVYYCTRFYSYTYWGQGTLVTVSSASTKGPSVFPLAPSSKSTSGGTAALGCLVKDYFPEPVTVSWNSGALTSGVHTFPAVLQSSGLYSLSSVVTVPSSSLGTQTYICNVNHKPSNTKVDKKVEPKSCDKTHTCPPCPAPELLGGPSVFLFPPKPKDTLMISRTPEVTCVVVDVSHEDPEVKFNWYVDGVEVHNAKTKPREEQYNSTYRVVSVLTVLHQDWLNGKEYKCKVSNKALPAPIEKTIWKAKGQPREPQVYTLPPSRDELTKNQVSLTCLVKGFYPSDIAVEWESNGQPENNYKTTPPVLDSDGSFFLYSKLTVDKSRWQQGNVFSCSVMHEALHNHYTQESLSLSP
light: B1 light
notes: mutation in both H chains; also called Ho Ab S337_20W; S337W
B19: GpH7-B3 variant S324_03V/GpL16-k0 (antibody, human IgG1, kappa)
heavy: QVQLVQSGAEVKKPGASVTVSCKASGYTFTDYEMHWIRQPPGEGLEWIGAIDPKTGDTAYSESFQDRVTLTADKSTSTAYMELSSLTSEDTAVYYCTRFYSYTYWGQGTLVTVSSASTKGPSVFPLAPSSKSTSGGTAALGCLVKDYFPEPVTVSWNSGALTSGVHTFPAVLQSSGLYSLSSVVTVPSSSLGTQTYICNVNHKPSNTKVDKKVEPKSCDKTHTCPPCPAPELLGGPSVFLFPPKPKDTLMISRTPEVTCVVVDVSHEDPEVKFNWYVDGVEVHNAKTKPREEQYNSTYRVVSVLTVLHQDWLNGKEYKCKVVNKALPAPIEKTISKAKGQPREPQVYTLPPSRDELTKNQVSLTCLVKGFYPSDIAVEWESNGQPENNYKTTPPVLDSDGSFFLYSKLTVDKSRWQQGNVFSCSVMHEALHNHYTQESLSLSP
light: B1 light
notes: mutation in both H chains; also called Ho Ab S324_03V; S324V
B20: GpH7-B3 variant T335_08L/GpL16-k0 (antibody, human IgG1, kappa)
heavy: not shown
light: B1 light
notes: mutation in both H chains; also called Ho Ab T335_08L; T335L
B21: GpH7-B3 variant S337_15Y/GpL16-k0 (antibody, human IgG1, kappa)
heavy: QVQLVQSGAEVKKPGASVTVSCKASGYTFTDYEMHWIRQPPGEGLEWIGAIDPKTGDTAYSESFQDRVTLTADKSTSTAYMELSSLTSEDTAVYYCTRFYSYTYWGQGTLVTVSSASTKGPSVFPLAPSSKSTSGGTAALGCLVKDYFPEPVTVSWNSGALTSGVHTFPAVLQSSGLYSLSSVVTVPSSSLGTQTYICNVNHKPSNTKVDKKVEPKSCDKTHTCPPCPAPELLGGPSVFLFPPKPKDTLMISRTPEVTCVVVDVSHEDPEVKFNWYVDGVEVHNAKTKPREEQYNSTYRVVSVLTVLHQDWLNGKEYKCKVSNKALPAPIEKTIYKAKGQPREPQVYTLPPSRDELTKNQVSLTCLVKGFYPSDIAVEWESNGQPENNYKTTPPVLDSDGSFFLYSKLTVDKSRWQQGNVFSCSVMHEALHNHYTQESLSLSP
light: B1 light
notes: mutation in both H chains; also called Ho Ab S337_15Y; S337Y
B22: GpH7-B3 variant S298_03V/GpL16-k0 (antibody, human IgG1, kappa)
heavy: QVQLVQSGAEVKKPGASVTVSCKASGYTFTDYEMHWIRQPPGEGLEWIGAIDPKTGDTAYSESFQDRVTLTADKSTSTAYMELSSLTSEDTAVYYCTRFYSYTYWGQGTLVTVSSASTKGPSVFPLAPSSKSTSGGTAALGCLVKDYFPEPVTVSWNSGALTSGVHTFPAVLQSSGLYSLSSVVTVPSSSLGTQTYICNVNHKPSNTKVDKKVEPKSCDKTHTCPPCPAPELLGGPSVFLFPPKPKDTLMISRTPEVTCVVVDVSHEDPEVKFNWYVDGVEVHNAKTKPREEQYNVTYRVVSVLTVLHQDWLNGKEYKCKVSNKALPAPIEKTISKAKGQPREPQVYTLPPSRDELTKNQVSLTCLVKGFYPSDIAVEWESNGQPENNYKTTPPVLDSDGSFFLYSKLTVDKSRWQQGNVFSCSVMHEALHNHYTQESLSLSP
light: B1 light
notes: mutation in both H chains; also called Ho Ab S298_03V; S298V
B23: GpH7-B3 variant S267_16H/GpL16-k0 (antibody, human IgG1, kappa)
heavy: not shown
light: B1 light
notes: mutation in both H chains; also called Ho Ab S267_16H; S267H
B24: GpH7-B3 variant S298_06M/GpL16-k0 (antibody, human IgG1, kappa)
heavy: not shown
light: B1 light
notes: mutation in both H chains; also called Ho Ab S298_06M; S298M
B25: GpH7-B3 variant T335_04F/GpL16-k0 (antibody, human IgG1, kappa)
heavy: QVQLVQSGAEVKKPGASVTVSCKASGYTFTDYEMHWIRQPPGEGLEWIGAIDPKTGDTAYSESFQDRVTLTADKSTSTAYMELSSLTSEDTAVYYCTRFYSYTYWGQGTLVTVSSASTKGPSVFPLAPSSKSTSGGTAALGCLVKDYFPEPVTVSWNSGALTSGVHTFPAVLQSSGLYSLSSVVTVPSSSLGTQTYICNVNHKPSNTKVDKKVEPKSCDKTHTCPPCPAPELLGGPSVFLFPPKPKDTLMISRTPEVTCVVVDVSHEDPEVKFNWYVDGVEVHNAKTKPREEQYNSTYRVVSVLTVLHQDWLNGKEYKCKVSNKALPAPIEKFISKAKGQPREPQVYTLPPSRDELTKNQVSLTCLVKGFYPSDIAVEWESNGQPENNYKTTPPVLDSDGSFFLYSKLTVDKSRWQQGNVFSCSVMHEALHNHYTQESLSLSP
light: B1 light
notes: mutation in both H chains; also called Ho Ab T335_04F; T335F
B26: GpH7-B3 variant S298_20W/GpL16-k0 (antibody, human IgG1, kappa)
heavy: not shown
light: B1 light
notes: mutation in both H chains; also called Ho Ab S298_20W; S298W
B27: GpH7-B3 variant S337_01G/GpL16-k0 (antibody, human IgG1, kappa)
heavy: not shown
light: B1 light
notes: mutation in both H chains; also called Ho Ab S337_01G; S337G
B28: GpH7-B3 variant S298_15Y/GpL16-k0 (antibody, human IgG1, kappa)
heavy: not shown
light: B1 light
notes: mutation in both H chains; also called Ho Ab S298_15Y; S298Y

T1 sequence (P12314 16-292): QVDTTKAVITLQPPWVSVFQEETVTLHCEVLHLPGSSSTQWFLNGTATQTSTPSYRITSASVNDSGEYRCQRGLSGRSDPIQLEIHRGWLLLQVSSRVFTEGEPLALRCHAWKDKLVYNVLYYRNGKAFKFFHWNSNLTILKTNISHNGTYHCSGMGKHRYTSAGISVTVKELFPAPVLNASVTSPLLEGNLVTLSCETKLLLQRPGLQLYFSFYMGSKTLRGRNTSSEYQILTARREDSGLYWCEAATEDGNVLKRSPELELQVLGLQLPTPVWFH

This test addresses T1, FcγRIa extracellular domain with C-terminal His tag (human, UniProt P12314 16-292).
T1 construct: extracellular domain; also called FcgRI; CD64; not shown: His tag at the C terminus
As to the kind of experiment: SPR Biacore, relative FcγRIa binding vs GpH7-B3/GpL16-k0.
Regarding B1, the Ho/Con_1a is 106 % of HoCon Ab (=100).
B2: the Ho/Con_1a was 104 % of HoCon Ab (=100).
As for B3, the figure is 108 % of HoCon Ab (=100); as for B4, 112 % of HoCon Ab (=100).
As for B5, the figure is 107 % of HoCon Ab (=100); as for B6, 105 % of HoCon Ab (=100).
As for B7, the figure is 103 % of HoCon Ab (=100).
As for B8, the Ho/Con_1a was 105 % of HoCon Ab (=100).
The value for B9 was 99.9 % of HoCon Ab (=100); that for B10 was 104 % of HoCon Ab (=100); that for B11 was 111 % of HoCon Ab (=100).
In the case of B12, the Ho/Con_1a is 102 % of HoCon Ab (=100).
B13: the Ho/Con_1a was 106 % of HoCon Ab (=100).
For the molecule B14, the Ho/Con_1a is 102 % of HoCon Ab (=100).
With B15, the Ho/Con_1a is 94.5 % of HoCon Ab (=100).
As for B16, the figure is 103 % of HoCon Ab (=100); as for B17, 100 % of HoCon Ab (=100).
As for B18, the figure is 104 % of HoCon Ab (=100).
The value for B19 was 103 % of HoCon Ab (=100).
As to B20, the Ho/Con_1a was 105 % of HoCon Ab (=100).
As for B21, the figure is 104 % of HoCon Ab (=100).
Consider B22, for which the Ho/Con_1a is 106 % of HoCon Ab (=100).
The value for B23 was 98.2 % of HoCon Ab (=100); that for B24 was 106 % of HoCon Ab (=100); that for B25 was 105 % of HoCon Ab (=100).
With B26, the Ho/Con_1a was 71.5 % of HoCon Ab (=100).
With B27, the Ho/Con_1a was 102 % of HoCon Ab (=100).
The value for B28 was 103 % of HoCon Ab (=100).
